Laboratory results as given in patent US6566083B1, “Method of detecting biologically active substances” (Novo Nordisk A/S, priority 1995, dated 2003).

Tests used:
[1] = target: T1, catalytic subunit of the cAMP dependent protein kinase (Bos taurus, UniProt P00517); test: In vitro GFP phosphorylation assay; type: biochemical; details: 0.5 μg GFP, 10 casein units kinase, 0.2 mM ATP, 5 minutes at 37° C., excitation 395 nm (FIG. 3)
T1 construct: purchased Promega
Description: For in vitro phosphorylation of GFP, 0.5 μg wild-type GFP (purified as described above) in 40 mM Tris, pH 7.4, 20 mM MgOAc and 0.2 mM ATP (all from Sigma, St. Louis, Mo., USA) was incubated for 1-60 minutes at 37° C. with 0-20 casein units of the catalytic subunit of the cAMP dependent protein kinase (Promega, Madison, Wis. USA) and 0-200 μM cAMP dependent protein kinase inhibitor. Emission (excitation wavelength 395 nm or 470 nm) and excitation (emission wavelength 508 nm) spectra were acquired for all samples using the LS50B Luminescence Spectrometer and the FL data Manager software package (Perkin Elmer). The spectra were subsequently compared by using the Graph Builder software package (Perkin Elmer).
The control (w/o PKA) was incubated 5 minutes at 37° C. without the catalytic subunit of the cAMP dependent protein kinase. The excitation wavelength was 395 nm. RFI in the figure means relative fluorescence intensity.

[2] = target: wild-type green fluorescent protein (GFP) derived from the jellyfish Aequorea victoria (Aequorea victoria) [GFP: P42212]; test: cell-based or functional assay

| increase of fluorescence intensity when incubated with the catalytic subunit of the cAMP dependent protein kinase [1] | fluorescence intensity of wild-type GFP (emission spectra, excitation 395 nm) after in vitro phosphorylation [2] | Substance |
| --- | --- | --- |
| approximately two-fold | – | wild-type GFP: wild-type green fluorescent protein derived from the jellyfish Aequorea victoria, SEQ ID NO: 32, purified from E. coli |
| – | 2 fold | catalytic subunit of the cAMP dependent protein kinase (Promega) (enzyme) |
